Assay results taken from the RNAGym collection of RNA variant scans (doi:10.7554/elife.80360).

B1: HDV Ribozyme (parent)
chain: GGCCGGCAUGGUCCCAGCCUCCUCGCUGGCGCCGGCUGGGCAACAUUCCGAGGGGACCGUCCCCUCGGUAAUGGCGAAUGGGACCCA

Variants of: B1
Experiment: self-cleavage, relative activity (ratio to wild type); higher = more cleavage; co-transcriptional

Point of comparison: GGCCGGCAUGGUCCCAGCCUCCUCGCUGGCGCCGGCUGGGCAACAUUCCGAGGGGACCGUCCCCACGGUAAUGGCGAAUUGGACCCA [U65A G80U], self-cleavage 0.279. Against it:
- GGCCGGCAUGGUCCCAGCCUCCUCGCUGGCGCCGGCUGGGCAACAUUCCGAGGGGACCGUCCCCACGGUAAAGGCGAAUGGGACCCA [U65A U72A] — higher, 0.636
- GGCCGGCAUGGUCCCAGCCUCCUCGCUGGCGCCGGCUGGGCAACAUUCCGAGGGGACCGUCCCCACGGUAAGGGCGAAUGGGACCCA [U65A U72G] — higher, 0.399
- GGCCGGCAUGGUCCCAGCCUCCUCGCUGGCGCCGGCUGGGCAACAUUCCGAGGGGACCGUCCCCACGGUAAUGACGAAUGGGACCCA [U65A G74A] — higher, 0.489
- GGCCGGCAUGGUCCCAGCCUCCUCGCUGGCGCCGGCUGGGCAACAUUCCGAGGGGACCGUCCCCACGGUAAUGCCGAAUGGGACCCA [U65A G74C] — lower, 0.225
- GGCCGGCAUGGUCCCAGCCUCCUCGCUGGCGCCGGCUGGGCAACAUUCCGAGGGGACCGUCCCCACGGUAAUGGCGAAUGGGGCCCA [U65A A83G] — higher, 0.859
- GGCCGGCAUGGUCCCAGCCUCCUCGCUGGCGCCGGCUGGGCAACAUUCCGAGGGGACCGUCCCCACGGUAAUGGCGAAUGGGCCCCA [U65A A83C] — higher, 0.504
- GGCCGGCAUGGUCCCAGCCUCCUCGCUGGCGCCGGCUGGGCAACAUUCCGAGGGGACCGUCCCCACGCUAAUGGCGAAUGGGACCCA [U65A G68C] — lower, 0
- GGCCGGCAUGGUCCCAGCCUCCUCGCUGGCGCCGGCUGGGCAACAUUCCGAGGGGACCGUCCCCACGGUAAUGGCGGAUGGGACCCA [U65A A77G] — higher, 0.643
- GGCCGGCAUGGUCCCAGCCUCCUCGCUGGCGCCGGCUGGGCAACAUUCCGAGGGGACCGUCCCCACGGUAAUGGCGCAUGGGACCCA [U65A A77C] — lower, 0.277
- GGCCGGCAUGGUCCCAGCCUCCUCGCUGGCGCCGGCUGGGCAACAUUCCGAGGGGACCGUCCCCCCGGUAAUGGCGAAUGGGAACCA [U65C C84A] — higher, 0.773
- GGCCGGCAUGGUCCCAGCCUCCUCGCUGGCGCCGGCUGGGCAACAUUCCGAGGGGACCGUCCCCCCGGUAAUGGCGAAUGGGAUCCA [U65C C84U] — higher, 0.703
- GGCCGGCAUGGUCCCAGCCUCCUCGCUGGCGCCGGCUGGGCAACAUUCCGAGGGGACCGUCCCCCCGGUAAUGGCGAAUGGGAGCCA [U65C C84G] — higher, 0.646
- GGCCGGCAUGGUCCCAGCCUCCUCGCUGGCGCCGGCUGGGCAACAUUCCGAGGGGACCGUCCCCACGGUAAUGGCGAAAGGGACCCA [U65A U79A] — higher, 0.727
- GGCCGGCAUGGUCCCAGCCUCCUCGCUGGCGCCGGCUGGGCAACAUUCCGAGGGGACCGUCCCCACGGUAAUGGGGAAUGGGACCCA [U65A C75G] — lower, 0.19
- GGCCGGCAUGGUCCCAGCCUCCUCGCUGGCGCCGGCUGGGCAACAUUCCGAGGGGACCGUCCCCACGGUAAUGGUGAAUGGGACCCA [U65A C75U] — lower, 0.277
- GGCCGGCAUGGUCCCAGCCUCCUCGCUGGCGCCGGCUGGGCAACAUUCCGAGGGGACCGUCCCCCCGGUAAUGGCGAAUGGGACCCU [U65C A87U] — higher, 1.08
- GGCCGGCAUGGUCCCAGCCUCCUCGCUGGCGCCGGCUGGGCAACAUUCCGAGGGGACCGUCCCCCCGGUAAUGGCGAAUGGGACCCG [U65C A87G] — higher, 0.94
- GGCCGGCAUGGUCCCAGCCUCCUCGCUGGCGCCGGCUGGGCAACAUUCCGAGGGGACCGUCCCCACGGUGAUGGCGAAUGGGACCCA [U65A A70G] — higher, 1.05
- GGCCGGCAUGGUCCCAGCCUCCUCGCUGGCGCCGGCUGGGCAACAUUCCGAGGGGACCGUCCCCCCGGUAAUGGCGAAUGGGACACA [U65C C85A] — higher, 0.991
- GGCCGGCAUGGUCCCAGCCUCCUCGCUGGCGCCGGCUGGGCAACAUUCCGAGGGGACCGUCCCCACGGUAAUGGCGAAUGGGACGCA [U65A C85G] — higher, 0.604
- GGCCGGCAUGGUCCCAGCCUCCUCGCUGGCGCCGGCUGGGCAACAUUCCGAGGGGACCGUCCCCCCGGUAUUGGCGAAUGGGACCCA [U65C A71U] — higher, 0.812
- GGCCGGCAUGGUCCCAGCCUCCUCGCUGGCGCCGGCUGGGCAACAUUCCGAGGGGACCGUCCCCCCGGUAAUGGCGAAUGGGACCAA [U65C C86A] — higher, 0.673
- GGCCGGCAUGGUCCCAGCCUCCUCGCUGGCGCCGGCUGGGCAACAUUCCGAGGGGACCGUCCCCCCGGUAAUGGUGAAUGGGACCCA [U65C C75U] — lower, 0.185
- GGCCGGCAUGGUCCCAGCCUCCUCGCUGGCGCCGGCUGGGCAACAUUCCGAGGGGACCGUCCCCCCGGUAAUGGGGAAUGGGACCCA [U65C C75G] — higher, 0.482
- GGCCGGCAUGGUCCCAGCCUCCUCGCUGGCGCCGGCUGGGCAACAUUCCGAGGGGACCGUCCCCCCGGUAAUGGAGAAUGGGACCCA [U65C C75A] — lower, 0.0489
- GGCCGGCAUGGUCCCAGCCUCCUCGCUGGCGCCGGCUGGGCAACAUUCCGAGGGGACCGUCCCCCAGGUAAUGGCGAAUGGGACCCA [U65C C66A] — higher, 1.18
- GGCCGGCAUGGUCCCAGCCUCCUCGCUGGCGCCGGCUGGGCAACAUUCCGAGGGGACCGUCCCCCGGGUAAUGGCGAAUGGGACCCA [U65C C66G] — higher, 1.11
- GGCCGGCAUGGUCCCAGCCUCCUCGCUGGCGCCGGCUGGGCAACAUUCCGAGGGGACCGUCCCCAUGGUAAUGGCGAAUGGGACCCA [U65A C66U] — higher, 0.812
- GGCCGGCAUGGUCCCAGCCUCCUCGCUGGCGCCGGCUGGGCAACAUUCCGAGGGGACCGUCCCCAGGGUAAUGGCGAAUGGGACCCA [U65A C66G] — higher, 0.932
- GGCCGGCAUGGUCCCAGCCUCCUCGCUGGCGCCGGCUGGGCAACAUUCCGAGGGGACCGUCCCCACGGUAAUGGCGAAUGGGACCCC [U65A A87C] — higher, 1.04
- GGCCGGCAUGGUCCCAGCCUCCUCGCUGGCGCCGGCUGGGCAACAUUCCGAGGGGACCGUCCCCACGGUAAUGGCGAAUGGGACCCG [U65A A87G] — higher, 0.877
- GGCCGGCAUGGUCCCAGCCUCCUCGCUGGCGCCGGCUGGGCAACAUUCCGAGGGGACCGUCCCCACGGUAAUGGCGAUUGGGACCCA [U65A A78U] — higher, 0.396
- GGCCGGCAUGGUCCCAGCCUCCUCGCUGGCGCCGGCUGGGCAACAUUCCGAGGGGACCGUCCCCACGGCAAUGGCGAAUGGGACCCA [U65A U69C] — higher, 0.782
- GGCCGGCAUGGUCCCAGCCUCCUCGCUGGCGCCGGCUGGGCAACAUUCCGAGGGGACCGUCCCCACGGAAAUGGCGAAUGGGACCCA [U65A U69A] — higher, 0.929
- GGCCGGCAUGGUCCCAGCCUCCUCGCUGGCGCCGGCUGGGCAACAUUCCGAGGGGACCGUCCCCACGGGAAUGGCGAAUGGGACCCA [U65A U69G] — higher, 0.806
- GGCCGGCAUGGUCCCAGCCUCCUCGCUGGCGCCGGCUGGGCAACAUUCCGAGGGGACCGUCCCCACGGUACUGGCGAAUGGGACCCA [U65A A71C] — higher, 0.767
- GGCCGGCAUGGUCCCAGCCUCCUCGCUGGCGCCGGCUGGGCAACAUUCCGAGGGGACCGUCCCCACGGUAUUGGCGAAUGGGACCCA [U65A A71U] — higher, 0.76
- GGCCGGCAUGGUCCCAGCCUCCUCGCUGGCGCCGGCUGGGCAACAUUCCGAGGGGACCGUCCCCACGGUAGUGGCGAAUGGGACCCA [U65A A71G] — higher, 0.831
- GGCCGGCAUGGUCCCAGCCUCCUCGCUGGCGCCGGCUGGGCAACAUUCCGAGGGGACCGUCCCCACUGUAAUGGCGAAUGGGACCCA [U65A G67U] — higher, 0.767
- GGCCGGCAUGGUCCCAGCCUCCUCGCUGGCGCCGGCUGGGCAACAUUCCGAGGGGACCGUCCCCACCGUAAUGGCGAAUGGGACCCA [U65A G67C] — higher, 0.705
- GGCCGGCAUGGUCCCAGCCUCCUCGCUGGCGCCGGCUGGGCAACAUUCCGAGGGGACCGUCCCCCCGGUAAUGGCGAAUGGGGCCCA [U65C A83G] — higher, 0.862
- GGCCGGCAUGGUCCCAGCCUCCUCGCUGGCGCCGGCUGGGCAACAUUCCGAGGGGACCGUCCCCCCGGUAAUGGCGAAUGGGUCCCA [U65C A83U] — higher, 0.369
- GGCCGGCAUGGUCCCAGCCUCCUCGCUGGCGCCGGCUGGGCAACAUUCCGAGGGGACCGUCCCCACGGUAAUGGCGAAUGAGACCCA [U65A G81A] — higher, 0.495
- GGCCGGCAUGGUCCCAGCCUCCUCGCUGGCGCCGGCUGGGCAACAUUCCGAGGGGACCGUCCCCCCGGUAAUGGCGGAUGGGACCCA [U65C A77G] — higher, 0.831
- GGCCGGCAUGGUCCCAGCCUCCUCGCUGGCGCCGGCUGGGCAACAUUCCGAGGGGACCGUCCCCCCGGUAAUGGCGCAUGGGACCCA [U65C A77C] — higher, 0.465
- GGCCGGCAUGGUCCCAGCCUCCUCGCUGGCGCCGGCUGGGCAACAUUCCGAGGGGACCGUCCCCACGGUAAUGGCGAAUGGCACCCA [U65A G82C] — higher, 0.614
- GGCCGGCAUGGUCCCAGCCUCCUCGCUGGCGCCGGCUGGGCAACAUUCCGAGGGGACCGUCCCCACGGUAAUGGCGAAUGGAACCCA [U65A G82A] — higher, 0.281
- GGCCGGCAUGGUCCCAGCCUCCUCGCUGGCGCCGGCUGGGCAACAUUCCGAGGGGACCGUCCCCCCGGUGAUGGCGAAUGGGACCCA [U65C A70G] — higher, 0.705
- GGCCGGCAUGGUCCCAGCCUCCUCGCUGGCGCCGGCUGGGCAACAUUCCGAGGGGACCGUCCCCCCGGUUAUGGCGAAUGGGACCCA [U65C A70U] — higher, 0.789
- GGCCGGCAUGGUCCCAGCCUCCUCGCUGGCGCCGGCUGGGCAACAUUCCGAGGGGACCGUCCCCCCGGUCAUGGCGAAUGGGACCCA [U65C A70C] — higher, 1.17
- GGCCGGCAUGGUCCCAGCCUCCUCGCUGGCGCCGGCUGGGCAACAUUCCGAGGGGACCGUCCCCCCGGUAAUGGCGAUUGGGACCCA [U65C A78U] — higher, 0.312
- GGCCGGCAUGGUCCCAGCCUCCUCGCUGGCGCCGGCUGGGCAACAUUCCGAGGGGACCGUCCCCCCAGUAAUGGCGAAUGGGACCCA [U65C G67A] — higher, 0.706
- GGCCGGCAUGGUCCCAGCCUCCUCGCUGGCGCCGGCUGGGCAACAUUCCGAGGGGACCGUCCCCCCCGUAAUGGCGAAUGGGACCCA [U65C G67C] — higher, 0.984
- GGCCGGCAUGGUCCCAGCCUCCUCGCUGGCGCCGGCUGGGCAACAUUCCGAGGGGACCGUCCCCACGGUAAUGGCAAAUGGGACCCA [U65A G76A] — higher, 0.976
- GGCCGGCAUGGUCCCAGCCUCCUCGCUGGCGCCGGCUGGGCAACAUUCCGAGGGGACCGUCCCCACGGUAAUGGCGAAUGGGACCCA [U65A] — higher, 0.966
- GGCCGGCAUGGUCCCAGCCUCCUCGCUGGCGCCGGCUGGGCAACAUUCCGAGGGGACCGUCCCCCCGGUAAUGGCGAAUGGGACCCA [U65C] — higher, 1.02
- GGCCGGCAUGGUCCCAGCCUCCUCGCUGGCGCCGGCUGGGCAACAUUCCGAGGGGACCGUCCCCACGGUAAUGGCGAAUGGGAGCCA [U65A C84G] — higher, 0.494
- GGCCGGCAUGGUCCCAGCCUCCUCGCUGGCGCCGGCUGGGCAACAUUCCGAGGGGACCGUCCCCACGGUAAUGGCGAAUGGGAACCA [U65A C84A] — higher, 0.769
- GGCCGGCAUGGUCCCAGCCUCCUCGCUGGCGCCGGCUGGGCAACAUUCCGAGGGGACCGUCCCCACGGUAAUGGCGAAUGGGACCUA [U65A C86U] — higher, 0.937
- GGCCGGCAUGGUCCCAGCCUCCUCGCUGGCGCCGGCUGGGCAACAUUCCGAGGGGACCGUCCCCACGGUAAUGGCGAAUGGGACCAA [U65A C86A] — higher, 1.07
- GGCCGGCAUGGUCCCAGCCUCCUCGCUGGCGCCGGCUGGGCAACAUUCCGAGGGGACCGUCCCCACGGUAAUAGCGAAUGGGACCCA [U65A G73A] — higher, 0.342
- GGCCGGCAUGGUCCCAGCCUCCUCGCUGGCGCCGGCUGGGCAACAUUCCGAGGGGACCGUCCCCACGGUAAUCGCGAAUGGGACCCA [U65A G73C] — higher, 0.415
- GGCCGGCAUGGUCCCAGCCUCCUCGCUGGCGCCGGCUGGGCAACAUUCCGAGGGGACCGUCCCCACGGUAAUGGCGAAUCGGACCCA [U65A G80C] — lower, 0.123
